From patent US20110033929A1 come the findings set out here.

Experiment [1] concerns the target human Langerin (human) (UniProt Q9UJ71). As to the kind of experiment: immunogold electron microscopy, 4° C., Langerhans cells of epidermal cell suspensions; isotype control for DCGM4.
The target is the same in experiment [2]. Briefly: cell-based or functional assay.
For experiment [3] the target is unchanged. As to the kind of experiment: immunogold electron microscopy, 4° C., 5 nm gold goat anti-mouse IgG, Langerhans cells of epidermal cell suspensions.

Sequence of UniProt Q9UJ71 (Q9UJ71 whole entry V278A): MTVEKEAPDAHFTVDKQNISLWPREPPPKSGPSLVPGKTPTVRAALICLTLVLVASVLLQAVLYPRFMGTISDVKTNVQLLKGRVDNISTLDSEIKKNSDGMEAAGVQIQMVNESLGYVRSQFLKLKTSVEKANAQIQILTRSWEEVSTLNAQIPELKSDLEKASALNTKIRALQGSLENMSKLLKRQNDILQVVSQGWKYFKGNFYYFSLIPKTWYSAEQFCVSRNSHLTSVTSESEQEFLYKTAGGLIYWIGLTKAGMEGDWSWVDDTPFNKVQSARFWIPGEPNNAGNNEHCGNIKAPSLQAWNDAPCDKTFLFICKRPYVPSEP

For control mouse IgG1 (Sigma) (antibody), the gold granules/100 µm membrane (granules/100 µm) with human Langerin (human) [1] was determined as 1.3.

In the experiment with human Langerin (human) [2], monoclonal antibody DCGM4 had a half-life (t1/2) of DCGM4 at the cytomembrane of 4.5 min and an internalization (decrease of cell-surface-bound antibody by FACS) of 75%. The substance further displayed an internalization rate k with human Langerin (human) [2] (scale: °/min) of 15.3. The gold granules/100 µm membrane (gold granules/100 µm membrane) with human Langerin (human) [3] was 162.
